Reference: patent US20230110287A1

Biological target: mouse (murine) NGF (mouse) (UniProt P01139)
Assay: SPR, purified antibody, beta muNGF, 39 C

mouse (murine) NGF (mouse), sequence (P01139 122-241 limits assumed): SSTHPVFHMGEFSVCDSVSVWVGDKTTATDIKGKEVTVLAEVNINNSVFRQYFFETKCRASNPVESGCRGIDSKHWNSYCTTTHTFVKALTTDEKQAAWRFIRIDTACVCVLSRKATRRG

Substance “chimeric αD11 (rat αD11 variable regions fused to canine constant chain regions) (antibody)” has a Kd of 0.905 pM, a koff of 6.2e-06 s⁻¹ and a kon of 6.86e+06 M⁻¹ s⁻¹.
